Source: US20210261648A1 (published 2021)
Numbering of substitutions follows the chain as printed. Names may count otherwise.

T1: FcγRIIb extracellular domain with C-terminal His tag (human, UniProt P31994 43-217)
T1 construct: extracellular domain; also called FcgRIIb
T1 sequence (looked up): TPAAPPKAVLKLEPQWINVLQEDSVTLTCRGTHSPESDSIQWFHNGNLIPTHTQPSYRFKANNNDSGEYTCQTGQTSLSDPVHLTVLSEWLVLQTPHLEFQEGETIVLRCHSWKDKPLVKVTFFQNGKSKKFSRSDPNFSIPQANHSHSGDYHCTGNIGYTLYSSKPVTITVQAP

T2: FcγRIIb extracellular domain with C-terminal His tag (human, UniProt P31994 43-217)
T2 construct: extracellular domain; For crystallography it was expressed with kifunensine and trimmed with Endo F1; also called FcgRIIb; FcγRIIb extracellular region; not shown: His tag attached to the C terminus
T2 sequence (looked up): T1 sequence (looked up)

T3: FcγRIIa type R extracellular domain with C-terminal His tag (human, UniProt P12318 34-217)
T3 chain: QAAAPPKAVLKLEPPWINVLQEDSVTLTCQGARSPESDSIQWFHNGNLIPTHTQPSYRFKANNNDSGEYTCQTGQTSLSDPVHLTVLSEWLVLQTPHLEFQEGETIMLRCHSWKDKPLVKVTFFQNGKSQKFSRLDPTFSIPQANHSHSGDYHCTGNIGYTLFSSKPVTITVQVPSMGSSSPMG

B1: IL6R-BP199/IL6R-L (antibody, human IgG1, kappa)
heavy: QVQLQESGPGLVKPSETLSLTCAVSGHSISHDHAWSWVRQPPGEGLEWIGFISYSGITNYNPSLQGRVTISRDNSKNTLYLQMNSLRAEDTAVYYCARSLARTTAMDYWGEGTLVTVSSASTKGPSVFPLAPSSKSTSGGTAALGCLVKDYFPEPVTVSWNSGALTSGVHTFPAVLQSSGLYSLSSVVTVPSSSLGTQTYICNVNHKPSNTKVDKKVEPKSCDKTHTCPPCPAPDLLGGDSVFLFPPKPKDTLMISRTPEVTCVVVDVSHEDPEVKFNWYVDGVEVHNAKTKPREEQYNSTYRVVSVLTVLHQDWLNGKEYKCKVSNDALPRPIEKTISKAKGQPREPQVYTLPPSRDELTKNQVSLTCLVKGFYPSDIAVEWESNGQPENNYKTTPPVLDSDGSFFLYSKLTVDKSRWQQGNVFSCSVMHEALHNHYTQESLSLSP
light: not shown
B2: IL6R-BP206/IL6R-L (antibody, human IgG1, kappa)
heavy: B1 heavy with P273G, D328K
light: not shown
B3: IL6R-BP211/IL6R-L (antibody, human IgG1, kappa)
heavy: B1 heavy with H270D, P273G, D328A
light: not shown
B4: IL6R-PD095/IL6R-L (antibody, human IgG1, kappa)
heavy: B1 heavy with D235E, G239Y, M254Y, D328K, R332A, N436Y, E441K
light: not shown
notes: PD variant; alterations introduced into IL6R-F11
B5: IL6R-PD097/IL6R-L (antibody, human IgG1, kappa)
heavy: B1 heavy with D235E, S241D, M254Y, D328K, R332A, N436Y, E441K
light: not shown
notes: as for B4
B6: IL6R-BP207/IL6R-L (antibody, human IgG1, kappa)
heavy: B1 heavy with D328K
light: not shown
B7: IL6R-PD094/IL6R-L (antibody, human IgG1, kappa)
heavy: B1 heavy with D235E, G239W, M254Y, D328K, R332A, N436Y, E441K
light: not shown
notes: as for B4
B8: GpH7-G1d/GpL16-k0 (antibody, human IgG1, kappa)
heavy: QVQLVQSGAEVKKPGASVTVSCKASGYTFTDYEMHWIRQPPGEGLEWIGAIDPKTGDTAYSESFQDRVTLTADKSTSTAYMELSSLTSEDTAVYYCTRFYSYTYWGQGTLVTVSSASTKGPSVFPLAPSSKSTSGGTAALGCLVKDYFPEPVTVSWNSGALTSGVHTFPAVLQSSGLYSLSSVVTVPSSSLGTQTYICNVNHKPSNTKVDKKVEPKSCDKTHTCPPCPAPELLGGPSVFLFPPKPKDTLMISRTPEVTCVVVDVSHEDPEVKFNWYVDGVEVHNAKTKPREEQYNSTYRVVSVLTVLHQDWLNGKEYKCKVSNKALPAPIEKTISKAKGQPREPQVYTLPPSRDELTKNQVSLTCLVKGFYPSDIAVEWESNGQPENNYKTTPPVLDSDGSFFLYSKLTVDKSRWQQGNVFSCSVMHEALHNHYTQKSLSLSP
light: DIVMTQSPLSLPVTPGEPASISCQASESLVHSNRNTYLHWYLQKPGQSPQLLIYKVSNRFSGVPDRFSGSGSGTDFTLKISRVEAEDVGVYYCSQNTHVPPTFGQGTKVEIERTVAAPSVFIFPPSDEQLKSGTASVVCLLNNFYPREAKVQWKVDNALQSGNSQESVTEQDSKDSTYSLSSTLTLSKADYEKHKVYACEVTHQGLSSPVTKSFNRGEC
notes: Anti-glypican 3 IgG1 without C-terminal Gly and Lys
B9: GpH7-AP001/GpH7-BF648/GpL16-k0 (antibody, human IgG1, kappa, name in EU numbering)
heavy 1: QVQLVQSGAEVKKPGASVTVSCKASGYTFTDYEMHWIRQPPGEGLEWIGAIDPKTGDTAYSESFQDRVTLTADKSTSTAYMELSSLTSEDTAVYYCTRFYSYTYWGQGTLVTVSSASTKGPSVFPLAPSSKSTSGGTAALGCLVKDYFPEPVTVSWNSGALTSGVHTFPAVLQSSGLYSLSSVVTVPSSSLGTQTYICNVNHKPSNTKVDKKVEPKSCDKTHTCPPCPAPELLGGDSVFLFPPKPKDTLMISRTPEVTCVVVDVSHEDPEVKFNWYVDGVEVHNAKTKPREEQYNSTYRVVSVLTVLHQDWLNGKEYKCKVSNKALPAPIEKTISKAKGQPREPQVYTLPPSRKELTKNQVSLTCLVKGFYPSDIAVEWESNGQPENNYKTTPPVLDSDGSFFLYSKLTVDKSRWQQGNVFSCSVMHEALHNRYTQKSLSLSP
heavy 2: not shown
light: B8 light
notes: Heterodimerized anti-glypican 3 IgG1; P238D in both chains
B10: GpH7-AP001/GpH7-BP069/GpL16-k0 (antibody, human IgG1, kappa, name in EU numbering)
heavy 1: B9 heavy 1
heavy 2: not shown
light: B8 light
notes: Heterodimerized anti-glypican 3 IgG1
B11: GpH7-AP001/GpH7-BP063/GpL16-k0 (antibody, human IgG1, kappa, name in EU numbering)
heavy 1: B9 heavy 1
heavy 2: not shown
light: B8 light
notes: as for B10
B12: GpH7-AP001/GpH7-BP044/GpL16-k0 (antibody, human IgG1, kappa)
heavy 1: B9 heavy 1
heavy 2: not shown
light: B8 light
notes: Heterodimerized anti-glypican 3 IgG1; copies: 1 + 1 + 2
B13: GpH7-AP001/GpH7-BP032/GpL16-k0 (antibody, human IgG1, kappa)
heavy 1: B9 heavy 1
heavy 2: not shown
light: B8 light
notes: as for B12
B14: GpH7-AP001/GpH7-BP061/GpL16-k0 (antibody, human IgG1, kappa, name in EU numbering)
heavy 1: B9 heavy 1
heavy 2: not shown
light: B8 light
notes: as for B10
B15: GpH7-AP001/GpH7-BP057/GpL16-k0 (antibody, human IgG1, kappa)
heavy 1: B9 heavy 1
heavy 2: not shown
light: B8 light
notes: as for B12
B16: GpH7-A5/GpH7-BF648/GpL16-k0 (antibody, human IgG1, kappa)
heavy 1: not shown
heavy 2: not shown
light: B8 light
notes: Heterodimerized anti-glypican 3 IgG1; P238D in the GpH7-B3 chain only
B17: GpH7-A5/GpH7-B3/GpL16-k0 (antibody, human IgG1, kappa)
heavy 1: not shown
heavy 2: not shown
light: B8 light
notes: Heterodimerized anti-glypican 3 IgG1 (A5: D356K/H435R; B3: K439E); also called A5/B3

Key:
[1] = target: T4, FcγRIa extracellular domain with C-terminal His tag (human, UniProt P12314 16-292); experiment: SPR, captured antibody, FcgR analyte
T4 construct: also called FcgRIa
T4 sequence (P12314 16-292): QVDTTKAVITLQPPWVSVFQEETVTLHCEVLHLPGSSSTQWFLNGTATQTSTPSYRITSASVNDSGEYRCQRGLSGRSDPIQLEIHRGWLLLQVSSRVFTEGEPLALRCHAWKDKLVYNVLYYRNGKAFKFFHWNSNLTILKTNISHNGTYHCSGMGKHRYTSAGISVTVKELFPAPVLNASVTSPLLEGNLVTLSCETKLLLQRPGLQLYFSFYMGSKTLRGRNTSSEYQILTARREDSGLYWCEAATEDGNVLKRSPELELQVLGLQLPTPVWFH
Experimental: (§1) Relative binding activities were calculated for the results of analyzing interactions with the respective FcγRs according to the following method.

[2] = target: T1, FcγRIIb extracellular domain with …; experiment: SPR, captured antibody, FcgR analyte
Experimental: as §1

[3] = target: T5, FcγRIIIa type V extracellular domain with C-terminal His tag (human, UniProt P08637 17-208); experiment: SPR, captured antibody, FcgR analyte
T5 construct: extracellular domain; also called FcgRIIIaV; FcγRIIIaV
T5 sequence (P08637 17-208 F176V): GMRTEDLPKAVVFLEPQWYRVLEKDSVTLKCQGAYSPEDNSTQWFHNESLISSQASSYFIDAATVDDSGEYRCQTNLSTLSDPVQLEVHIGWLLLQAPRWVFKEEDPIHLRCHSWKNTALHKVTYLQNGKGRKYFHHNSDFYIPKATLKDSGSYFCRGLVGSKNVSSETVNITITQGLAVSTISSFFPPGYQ
Experimental: as §1

[4] = target: T2, FcγRIIb extracellular domain with …; experiment: SPR binding amount, relative to IL6R-F652/IL6R-L
[5] = target: T3, FcγRIIa type R extracellular domain …; experiment: SPR binding amount, relative to IL6R-F652/IL6R-L
[6] = target: T2, FcγRIIb extracellular domain with …; experiment: SPR binding amounts, FcgRIIb divided by FcgRIIaR
[7] = target: T2, FcγRIIb extracellular domain with …; experiment: SPR binding amount, relative to GpH7-AP001/GpH7-BF648/GpL16-k0
[8] = target: T3, FcγRIIa type R extracellular domain …; experiment: as above

| Binder | amount binding to FcgRIIb/amount binding to FcgRIIaR [6] | binding amount to FcgRIIb when that of GpH7-AP001/GpH7-BF648 is defined as 100 [7] | binding amount to FcgRIIaR when that of GpH7-AP001/GpH7-BF648 is defined as 100 [8] | also measured |
| --- | --- | --- | --- | --- |
| B1 | – | – | – | relative binding activity [1]: 112 relative (IL6R-BF648/IL6R-L = 100); relative binding activity [2]: 144 relative (IL6R-BF648/IL6R-L = 100); relative binding activity [3]: 103 relative (IL6R-BF648/IL6R-L = 100) |
| B2 | – | – | – | relative binding activity [1]: 101 relative (IL6R-BF648/IL6R-L = 100); relative binding activity [2]: 168 relative (IL6R-BF648/IL6R-L = 100); relative binding activity [3]: 92 relative (IL6R-BF648/IL6R-L = 100) |
| B3 | – | – | – | relative binding activity [1]: 128 relative (IL6R-BF648/IL6R-L = 100); relative binding activity [2]: 165 relative (IL6R-BF648/IL6R-L = 100); relative binding activity [3]: 87 relative (IL6R-BF648/IL6R-L = 100) |
| B4 | – | – | – | relative binding activity to FcγRIIb (IL6R-F652/IL6R-L = 100) [4]: 124; relative binding activity to FcγRIIaR (IL6R-F652/IL6R-L = 100) [5]: 543 |
| B5 | – | – | – | relative binding activity to FcγRIIb (IL6R-F652/IL6R-L = 100) [4]: 139; relative binding activity to FcγRIIaR (IL6R-F652/IL6R-L = 100) [5]: 844 |
| B6 | – | – | – | relative binding activity [1]: 74 relative (IL6R-BF648/IL6R-L = 100); relative binding activity [2]: 124 relative (IL6R-BF648/IL6R-L = 100); relative binding activity [3]: 97 relative (IL6R-BF648/IL6R-L = 100) |
| B7 | – | – | – | relative binding activity to FcγRIIb (IL6R-F652/IL6R-L = 100) [4]: 122; relative binding activity to FcγRIIaR (IL6R-F652/IL6R-L = 100) [5]: 593 |
| B8 | 0.5 | 65 | 515 | – |
| B9 | 4 | 100 | 100 | – |
| B10 | 2.2 | 72 | 131 | – |
| B11 | 1.7 | 69 | 161 | – |
| B12 | 0.8 | 127 | 609 | – |
| B13 | 1 | 129 | 538 | – |
| B14 | 2.9 | 80 | – | – |
| B15 | 0.9 | 121 | 561 | – |
| B16 | 0.8 | 131 | 677 | – |
| B17 | 0.5 | 77 | 570 | – |
